Measurements taken from patent EP1980246A1.

Assays:
[1] = molecular target: purified porcine TGF-β1 (Peninsula) (porcine) (UniProt P07200); assay: active TGF-β ELISA, R2X capture, TGF-β titrated in TBS, BDA47 detection; ΔA50%
[2] = molecular target: recombinant human TGF-β1 (human) (UniProt P01137); assay: as above
Sequence of recombinant human TGF-β1 (human) (P01137 279-390 limits assumed): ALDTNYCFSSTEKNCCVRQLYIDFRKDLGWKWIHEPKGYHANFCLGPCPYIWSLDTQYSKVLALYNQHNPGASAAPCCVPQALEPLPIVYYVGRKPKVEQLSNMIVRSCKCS

Sequence of purified porcine TGF-β1 (Peninsula) (porcine) (P07200 279-390 limits assumed): as the sequence (P01137 279-390 limits assumed) above

## truncated extracellular domain of the type II TGF-beta receptor fused to glutathione-S-transferase (R2X) (from UniProt P08515 1-218; P37173 23-166)
[1]
  EC50: 0.68 nM
[2]
  EC50: 0.72 nM
